Laboratory results from patent US20180030151A1 (MOGAM INSTITUTE FOR BIOMEDICAL RESEARCH, published 2018).
Like-named read-outs stand apart in the source and are kept apart here. Values belong to the binder of their own block, whether it stands above or below them.

What was measured:
Assay in all cases: cell-based or functional assay
[1] = target: T1, recombinant human TFPI (tissue factor pathway inhibitor) (human, UniProt P10646 29-304)
[2] = target: T1, recombinant human TFPI (tissue factor …); remark: listed apart in the source
[3] = target: T1, recombinant human TFPI (tissue factor …); remark: listed apart in the source
[4] = target: T1, recombinant human TFPI (tissue factor …); remark: listed apart in the source
[5] = target: T1, recombinant human TFPI (tissue factor …); remark: listed apart in the source
[6] = target: T1, recombinant human TFPI (tissue factor …); remark: listed apart in the source
[7] = target: T1, recombinant human TFPI (tissue factor …); remark: listed apart in the source
[8] = target: T1, recombinant human TFPI (tissue factor …); remark: listed apart in the source

- A405, TF/FVIIa/FX complex assay (FX 5 nM), Ab 1.56 nM [1]: 0.045
- A405, TF/FVIIa/FX complex assay (FX 5 nM), Ab 3.13 nM [1]: 0.045
- A405, TF/FVIIa/FX complex assay (FX 5 nM), Ab 6.25 nM [1]: 0.052
- A405, TF/FVIIa/FX complex assay (FX 5 nM), Ab 12.5 nM [1]: 0.083
- A405, TF/FVIIa/FX complex assay (FX 5 nM), Ab 25 nM [1]: 0.416
- A405, TF/FVIIa/FX complex assay (FX 5 nM), Ab 50 nM [1]: 0.735
- A405, TF/FVIIa/FX complex assay (FX 5 nM), Ab 100 nM [1]: 0.835
- FXa assay % of FXa alone, 2.5 nM Ab, 10 nM TFPI [2]: 7.3%
- FXa assay % of FXa alone, 5 nM Ab, 10 nM TFPI [2]: 32.8%
- FXa assay % of FXa alone, 10 nM Ab, 10 nM TFPI [2]: 76.5%
- FXa assay % of FXa alone, 20 nM Ab, 10 nM TFPI [2]: 87.2%
- FXa assay OD, 2.5 nM Ab, 10 nM TFPI [2]: 0.0605
- FXa assay OD, 5 nM Ab, 10 nM TFPI [2]: 0.271
- FXa assay OD, 10 nM Ab, 10 nM TFPI [2]: 0.632
- FXa assay OD, 20 nM Ab, 10 nM TFPI [2]: 0.721
- FXa assay % of FXa alone, 2.5 nM Ab, 10 nM TFPI [3]: 8.2%
- FXa assay % of FXa alone, 5 nM Ab, 10 nM TFPI [3]: 45.3%
- FXa assay OD, 2.5 nM Ab, 10 nM TFPI [3]: 0.0625
- FXa assay OD, 5 nM Ab, 10 nM TFPI [3]: 0.345
- FXa assay OD, 10 nM Ab, 10 nM TFPI [3]: 0.602
- FXa assay OD, 20 nM Ab, 10 nM TFPI [3]: 0.58
- effect of inhibiting TFPI, FXa activity assay, Ab 10 nM [4]: ~79%
- effect of inhibiting TFPI, FXa activity assay, Ab 20 nM [4]: ~76%
- % of Normalized, TF/FVIIa/FX complex assay (FX 5 nM), Ab 1.56 nM [5]: 5.5%
- % of Normalized, TF/FVIIa/FX complex assay (FX 5 nM), Ab 3.13 nM [5]: 5.6%
- % of Normalized, TF/FVIIa/FX complex assay (FX 5 nM), Ab 6.25 nM [5]: 6.4%
- % of Normalized, TF/FVIIa/FX complex assay (FX 5 nM), Ab 12.5 nM [5]: 10.3%
- % of Normalized, TF/FVIIa/FX complex assay (FX 5 nM), Ab 25 nM [5]: 51.4%
- % of Normalized, TF/FVIIa/FX complex assay (FX 5 nM), Ab 50 nM [5]: 90.9%
- % of Normalized, TF/FVIIa/FX complex assay (FX 5 nM), Ab 100 nM [5]: 103%
B1: clone 2 (antibody, V domains shown)
VH: EVQLVESGGGLVKPGGSLRLSCAASGFTFSSYAMNWVRQAPGKGLEWVSTITTGGSYTYYADSVEGRFTISRDNAKNSLYLQMNSLRAEDTAVYYCARQDGNFLMDYWGQGTLVTVSS
VL: DVVMTQTPLSLPVTLGQPASISCKSSPSLLDIDGKTYLNWLQQRPGQSPKRLIYLVSKLDSGVPDRFTGSGSGTDFTLKISRVEAEDVGVYYCWQGTHFPFTFGQGTKVEIKR

- FXa assay % of FXa alone, 2.5 nM Ab, 10 nM TFPI [6]: 6.2%
- FXa assay % of FXa alone, 5 nM Ab, 10 nM TFPI [6]: 13.5%
- FXa assay % of FXa alone, 10 nM Ab, 10 nM TFPI [6]: 48.5%
- FXa assay % of FXa alone, 20 nM Ab, 10 nM TFPI [6]: 68%
- FXa assay OD, 2.5 nM Ab, 10 nM TFPI [6]: 0.0505
- FXa assay OD, 5 nM Ab, 10 nM TFPI [6]: 0.11
- FXa assay OD, 10 nM Ab, 10 nM TFPI [6]: 0.394
- FXa assay OD, 20 nM Ab, 10 nM TFPI [6]: 0.552
- % of Normalized, TF/FVIIa/FX complex assay, Ab 1.56 nM [7]: 16.1%
- % of Normalized, TF/FVIIa/FX complex assay, Ab 3.13 nM [7]: 17.7%
- % of Normalized, TF/FVIIa/FX complex assay, Ab 6.25 nM [7]: 18.9%
- % of Normalized, TF/FVIIa/FX complex assay, Ab 12.5 nM [7]: 22.7%
- % of Normalized, TF/FVIIa/FX complex assay, Ab 25 nM [7]: 46.3%
- % of Normalized, TF/FVIIa/FX complex assay, Ab 50 nM [7]: 102%
- % of Normalized, TF/FVIIa/FX complex assay, Ab 100 nM [7]: 102%
- A405, TF/FVIIa/FX complex assay, Ab 1.56 nM [8]: 0.147
- A405, TF/FVIIa/FX complex assay, Ab 3.13 nM [8]: 0.162
- A405, TF/FVIIa/FX complex assay, Ab 6.25 nM [8]: 0.173
- A405, TF/FVIIa/FX complex assay, Ab 12.5 nM [8]: 0.208
- A405, TF/FVIIa/FX complex assay, Ab 25 nM [8]: 0.424
- A405, TF/FVIIa/FX complex assay, Ab 50 nM [8]: 0.934
- A405, TF/FVIIa/FX complex assay, Ab 100 nM [8]: 0.932
B2: clone 3203 (antibody, V domains shown)
VH: EVQLVESGGGLVKPGGSLRLSCAASGFTFSSYAMSWVRQAPGKGLEWVSTITTGGSYTYYADSVEGRFTISRDNAKNSLYLQMNSLRAEDTAVYYCARQDGNFLMDYWGQGTLVTVSS
VL: DVVMTQTPLSLPVTLGQPASISCKSSQSLLDLDGKTYLNWLQQRPGQSPKRLIYLVSKLDSGVPDRFTGSGSGTDFTLKISRVEAEDVGVYYCWQGTHFPFTFGQGTKVEIKR
